These results are taken from patent US20240279318A1 (published 2024).

Experiment [1] concerns the target A*02:07. The experiment in a line: SPR; low fitting confidence.
For experiment [2], the target named is A*02:05. The experiment in a line: SPR; low fitting confidence.
Experiment [3] has as its target A*02:02. Briefly: SPR; low fitting confidence.
Experiment [4] has as its target A*02:03. The experiment in a line: SPR; low fitting confidence. On the technique in general: In SPR one partner is held on a chip, and binding of the other changes the refractive index at the surface.
For experiment [5], the target named is A*02:06. Briefly: SPR.
Experiment [6] deals with A*02:11. Briefly: SPR.
The target in experiment [7] is A*02:11. The experiment in a line: SPR; low fitting confidence.
Experiment [8] deals with A*02:05. The experiment in a line: SPR.
Experiment [9] concerns the target AFP158/HLA-A*02:01 complex. Briefly: SPR.
Experiment [10] concerns the target T1, AFP158 loaded T2 cells (human;, UniProt P61769 21-119). The experiment in a line: flow cytometry. Background: A flow cytometer gives signals particle by particle.
Experiment [11] addresses A*02:06. The experiment in a line: SPR; head prints KD(1/s).
The target in experiment [12] is A*02:07. The experiment in a line: SPR; head prints KD(1/s).
The target in experiment [13] is A*02:11. Briefly: SPR; head prints KD(1/s).
In experiment [14] the target is A*02:05. Briefly: SPR; head prints KD(1/s).
The target in experiment [15] is A*02:02. Briefly: SPR; head prints KD(1/s).
Experiment [16] addresses A*02:03. Briefly: SPR; head prints KD(1/s).
The target in experiment [17] is AFP158/HLA-A*02:01 complex. The experiment in a line: SPR; head prints KD(1/s).
Experiment [18] addresses A*02:06. The experiment in a line: SPR; low fitting confidence.
The target of experiment [19] is A*02:03. Briefly: SPR.
The target of experiment [20] is A*02:07. Briefly: SPR; low fitting confidence. The source holds these as a separate data set.
The target in experiment [21] is A*02:11. Briefly: SPR; low fitting confidence. This is another data set of the same source.
In experiment [22] the target is A*02:02. The experiment in a line: SPR; low fitting confidence. The source holds these as a separate data set.
Experiment [23] addresses AFP158/HLA-A*02:01 complex. Briefly: SPR. The source holds these as a separate data set.
Experiment [24] concerns the target A*02:06. The experiment in a line: SPR. The source holds these as a separate data set.
Experiment [25] deals with A*02:05. Briefly: SPR. This is another data set of the same source.
Experiment [26] deals with A*02:03. Briefly: SPR. This is another data set of the same source.
Experiment [27] deals with A*02:07. Briefly: SPR.
Experiment [28] concerns the target A*02:11. Briefly: SPR. The source holds these as a separate data set.
Experiment [29] concerns the target T1, AFP158 loaded T2 cells. The experiment in a line: flow cytometry. This is another data set of the same source.
The target in experiment [30] is A*02:07. Briefly: SPR. This is another data set of the same source.
For experiment [31], the target named is A*02:02. Briefly: SPR.

Like-named read-outs stand apart in the source and are kept apart here. A value given as a limit tells only on which side of the number the result lay.

B1: AS179723 VL1g1VH1g1-N73Y (Fc fusion)
chain: QSVLTQPPSASGTPGQRVTISCSGSSNNIGGNYVNWYQQLPGTAPKLLIYDNKNRPSGVPDRFSGSKSGTSASLAISGLQSEDEADYYCASWDDSLSAVVFGGGTKLTVLGGGGSGGGGSGGGGSEVQLVESGGGLVQPGGSLRLSCAASGFTFLNYAMSWVRQAPGKGLEWVSSNSGAGSTYYADSVKGRFTISRDYSKNTLYLQMNSLRAEDTAVYYCAKGTNVGSWSSLHYWGQGTLVTVSS
For B1, the Kd in the experiment with A*02:07 [1] is above 1700 nM; in the experiment with A*02:05 [2] it was above 17000 nM; with A*02:02 [3], above 77000 nM; with A*02:03 [4], above 6100 nM; with A*02:06 [5], 220 nM; with A*02:11 [6], 700 nM.

B2: AS179732 VL1g1VH1g1-N73Y (Fc fusion)
chain: QSVLTQPPSASGTPGQRVTISCSGSSSNIGGNYVNWYQQLPGTAPKLLIYDNSNRASGVPDRFSGSKSGTSASLAISGLQSEDEADYYCASWDDSLSGAVFGGGTKLTVLGGGGSGGGGSGGGGSEVQLVESGGGLVQPGGSLRLSCAASGFTFLNYAMSWVRQAPGKGLEWVSSNSGAGSTYYADSVKGRFTISRDYSKNTLYLQMNSLRAEDTAVYYCAKGTNVGSWSSLHYWGQGTLVTVSS
Turning to B2, the dissociation constant (Kd) was above 2400 nM with A*02:07 [1]; above 1000 nM in the experiment with A*02:11 [7]; above 29000 nM in the experiment with A*02:02 [3]; above 11000 nM with A*02:03 [4]; 220 nM with A*02:06 [5]; 17000 nM with A*02:05 [8].

B3: AS170036 VL1VH1 scFv-mIgG2aFc (Fc fusion)
chain: QSALTQPRSVSGSPGQSVTISCAGTSSDVGSENYVSWYQQHPGKAPKLMIYQVNKRASGVPDRFSGSKSGNTASLTISGLQAEDEADYYCASYRSSDHNIVFGGGTKLTVLGGGGSGGGGSGGGGSEVQLVESGGGLVQPGGSLRLSCAASGFTFSSYAMSWVRQAPGKGLEWVSTINSGTGSPYYADSVKGRFTISRDNSKNTLYLQMNSLRAEDTAVYYCAKNFFDGSWFLGPPAMDYWGQGTLVTVSS
As for B3, binding in experiment [9] was put at a Kd of 256 nM. Besides, the concentration for a half-maximal effect (EC50) with AFP158 loaded T2 cells [10] was 8.79 nM.

B4: AS190259 VL1VH1 (Fc fusion)
chain: SSELTQDPAVSVALGQTVRITCQGGGYYVNWYQQKPGQAPVLVIYLNTNRPSGIPDRFSGSSSGNTASLTITGAQAEDEADYYCQSADSSGNSAVFGGGTKLTVLGGGGSGGGGSGGGGSEVQLVESGGGLVQPGGSLRLSCAASGFTFSSYAMSWVRQAPGKGLEWVSAINSGGGSTYYADSVKGRFTISRDNSKNTLYLQMNSLRAEDTAVYYCAKAASGYGGSWWGDATLDAWGQGTLVTVSS
As for B4, the Kd with A*02:06 [11] stood at 800 nM; with A*02:07 [12] it was 3500 nM; with A*02:11 [13] it was 6700 nM; in the experiment with A*02:05 [14] it was 7000 nM; with A*02:02 [15] it was 970 nM; with A*02:03 [16], 48000 nM.

B5: AS190259 VL1VH1 scFv-mIgG2aFc (Fc fusion)
chain: SSELTQDPAVSVALGQTVRITCQGGGYYVNWYQQKPGQAPVLVIYLNTNRPSGIPDRFSGSSSGNTASLTITGAQAEDEADYYCQSADSSGNSAVFGGGTKLTVLGGGGSGGGGSGGGGSEVQLVESGGGLVQPGGSLRLSCAASGFTFSSYAMSWVRQAPGKGLEWVSAINSGGGSTYYADSVKGRFTISRDNSKNTLYLQMNSLRAEDTAVYYCAKAASGYGGSWWGDATLDAWGQGTLVTVSS
In turn, B5 displayed a Kd in experiment [17] of 130 nM. In addition, the 50% effective concentration (EC50) in the experiment with AFP158 loaded T2 cells [10] stood at 3.56 nM.

B6: AS170036 (Fc fusion)
chain: QLVLTQPSSVSGTPGQTVTISCAGTSSDVGSENYVSWYRQLPGTAPKLLIYQVNKRASGIADRFSGSKSGNTASMTISGLQSADEADYYCASYRSSDHNIVFGGGTHLTVLGGGGSGGGGSGGGGSAVQLVESGGGLVQPGGSLRLSCTASGFTFSSYAMSWVRQAPGKGLEWVSTINSGTGSPYYADSVKGRFTISRDNAKNTLYLQLNSLKTEDTAMYYCAKNFFDGSWFLGPPAMDYWGKGTLVTISS
As to B6, the Kd with A*02:06 [18] is above 3100 nM; with A*02:07 [1], above 4800 nM; in the experiment with A*02:11 [7], above 28000 nM; with A*02:05 [2], above 100000 nM; with A*02:02 [3], above 5000 nM; with A*02:03 [19], 38000 nM.

B7: AS170036 VL1VH1-56N98I (scFv)
scFv: QSALTQPRSVSGSPGQSVTISCAGTSSDVGSENYVSWYQQHPGKAPKLMIYQVNKRASGVPDRFSGSKSGNTASLTISGLQAEDEADYYCASYRSSDINIVFGGGTKLTVLGGGGSGGGGSGGGGSEVQLVESGGGLVQPGGSLRLSCAASGFTFSSYAMSWVRQAPGKGLEWVSTINSGTNSPYYADSVKGRFTISRDNSKNTLYLQMNSLRAEDTAVYYCAKNFFDGSWFLGPPAMDYWGQGTLVTVSSHHHHHH
Consider B7, for which the Kd with A*02:07 [20] was above 17000 nM; with A*02:11 [21], above 500 nM; with A*02:02 [22], above 3200 nM; in [23], 41 nM; with A*02:06 [24], 570 nM; with A*02:05 [25], 2100 nM. Further, the affinity with A*02:03 [26], expressed as Kd, was 2700 nM.

B8: AS170036 VL1VH1-56Y98I108S (scFv)
scFv: QSALTQPRSVSGSPGQSVTISCAGTSSDVGSENYVSWYQQHPGKAPKLMIYQVNKRASGVPDRFSGSKSGNTASLTISGLQAEDEADYYCASYRSSDINIVFGGGTKLTVLGGGGSGGGGSGGGGSEVQLVESGGGLVQPGGSLRLSCAASGFTFSSYAMSWVRQAPGKGLEWVSTINSGTYSPYYADSVKGRFTISRDNSKNTLYLQMNSLRAEDTAVYYCAKNFFDGSWFLSPPAMDYWGQGTLVTVSSHHHHHH
For B8, the dissociation constant (Kd) was above 4500 nM with A*02:02 [22]; 2.4 nM in experiment [23]; 69 nM in the experiment with A*02:06 [24]; 1000 nM in the experiment with A*02:07 [27]; 160 nM with A*02:11 [28]; 2400 nM in the experiment with A*02:05 [25]. In addition, binding with A*02:03 [26] was put at a Kd of 950 nM.

B9: AS190259 (Fc fusion)
chain: QSVVTQPSAVSVSLEETATITCQGGGYYVNWYQQKPGQAPVLVIYLNTNRPSGIPERFSASKSGGTATLTINGAQAEDEAAYYCQSADSSGNSAVFGGGTHLTVLGGGGSGGGGSGGGGSQVQLVQSGGGLVQPGGSLRLSCAASGFTFSSYAMSWVRQAPGKGLEWVSAINSGGGSTYYADSVKGRFTISRDNAKNTLYLQLNSLKTEDTAMYYCAKAASGYGGSWWGDATLDAWGQGTLVTVSS
Consider B9, for which the dissociation constant Kd turned out to be 520 nM with A*02:06 [11]; 2500 nM in the experiment with A*02:07 [12]; 4500 nM with A*02:11 [13]; 3800 nM in the experiment with A*02:05 [14]; 660 nM with A*02:02 [15]; 35000 nM in the experiment with A*02:03 [16].

B10: AS190259 scFv-mIgG2aFc (Fc fusion)
chain: QSVVTQPSAVSVSLEETATITCQGGGYYVNWYQQKPGQAPVLVIYLNTNRPSGIPERFSASKSGGTATLTINGAQAEDEAAYYCQSADSSGNSAVFGGGTHLTVLGGGGSGGGGSGGGGSQVQLVQSGGGLVQPGGSLRLSCAASGFTFSSYAMSWVRQAPGKGLEWVSAINSGGGSTYYADSVKGRFTISRDNAKNTLYLQLNSLKTEDTAMYYCAKAASGYGGSWWGDATLDAWGQGTLVTVSS
With B10, in the experiment with AFP158 loaded T2 cells [29], the 50% effective concentration (EC50) came to 3.76 nM. This molecule also returned a dissociation constant Kd in [17] of 100 nM.

B11: AS179723 (Fc fusion)
chain: QAGLTQPPSMSGSPRQSVTISCTGSSNNIGGNYVNWYQHLPGTAPKLLIYDNKNRPSGVPEQISGSKSGSSASLTITGLQAEDEGDYYCASWDDSLSAVVFGGGTHLTVLGGGGSGGGGSGGGGSEVQLVESGGGLVQPGGSLRLSCAASGFTFLNYAMSWVRQAPGKGLEWVSSNSGAGSTYYSDSVKGRFTISRDYAKNVVYLQLNSLKTEDTGMYYCAKGTNVGSWSSLHYWGQGTQVTVSS
Take B11: the Kd with A*02:06 [5] was 114 nM; with A*02:07 [30] it was 1270 nM; with A*02:11 [6], 297 nM; with A*02:05 [8] it was 29000 nM; with A*02:02 [31], 32200 nM; with A*02:03 [19], 2570 nM.

The term Kd denotes a measure of binding affinity in units of concentration. High values mean lower affinity, low ones higher affinity. The term EC50 denotes the midpoint of the concentration-response curve. Low readings indicate a more potent agent, high ones a less potent agent.
